Measured values from paper PMC10465592, “Reduced ADP off-rate by the yeast CCT2 double mutation T394P/R510H which causes Leber congenital amaurosis in humans” (Communications Biology, 2023).

Columns and labels:
Test in all cases: steady-state ATPase, coumarin-labelled phosphate-binding protein fluorescence, fit to two allosteric transitions
Assay type in all cases: biochemical, Saccharomyces cerevisiae
Settings in all cases: 25 °C, pH 7.5 Tris-HCl, 10 mM MgCl2, 50 mM KCl, 20% glycerol, 1 mM DTT, first ring (stronger site), cooperative
[1] = system: T1, Nc1ncnc2c1ncn2[C@@H]1O[C@H](COP(=O)(O)OP(=O)(O)OP(=O)(O)O)[C@@H](O)[C@H]1O
T1 construct: native complex from yeast cells, two back-to-back rings each of eight distinct subunits CCT1-CCT8; CCT2 mutations introduced in the chromosomal gene
From the text: steady-state ATPase, coumarin-labelled phosphate-binding protein fluorescence, fit to two allosteric transitions on CCT/TRiC (Saccharomyces cerevisiae) | In the case of the T394P single mutant, the values of the apparent ATP binding

[2] = system: T1, Nc1ncnc2c1ncn2[C@@H]1O[C@H](COP(=O)(O)OP(=O)(O)OP(=O)(O)O)[C@@H](O)[C@H]1O; remark: listed apart in the source
From the text: steady-state ATPase, coumarin-labelled phosphate-binding protein fluorescence, fit to two allosteric transitions on CCT/TRiC (Saccharomyces cerevisiae) | In the case of the wild-type, the values of the apparent ATP binding constants

[3] = system: T1, Nc1ncnc2c1ncn2[C@@H]1O[C@H](COP(=O)(O)OP(=O)(O)OP(=O)(O)O)[C@@H](O)[C@H]1O; remark: listed apart in the source
From the text: steady-state ATPase, coumarin-labelled phosphate-binding protein fluorescence, fit to two allosteric transitions on CCT/TRiC (Saccharomyces cerevisiae) | In the case of the R510H single mutant, the values of the apparent ATP binding

Substance: CCT/TRiC (Saccharomyces cerevisiae) (Saccharomyces cerevisiae S288C; P39076:T394P)
- K0.5 [1]: 8.9 (±3.4) μM
- kcat [1]: 0.11 (±0.03) s^-1

Substance: CCT/TRiC (Saccharomyces cerevisiae) (Saccharomyces cerevisiae S288C)
- K0.5 [2]: 8.3 (±1.6) μM
- kcat [2]: 0.043 (±0.005) s^-1

Substance: CCT/TRiC (Saccharomyces cerevisiae) (Saccharomyces cerevisiae S288C; P39076:R510H)
- K0.5 [3]: 7.1 (±2.4) μM
- kcat [3]: 0.10 (±0.03) s^-1
